Assay results published in the supplement of paper PMC7877785.
± gives the uncertainty stated by the source.

Assay: self-splicing fitness, log relative to wild type (ln ratio); higher = more splicing; Tetrahymena group I intron in knt gene, E. coli kanamycin selection, DiMSum; sequences stand for … in CUCUCU…GGAGGGAAAAGUUAUCAGGCAUGCACCUGGUAGCUAGUCUUUAAACCAAUAGAUUGCAUCGGUUUAAAAGGCAAGACCGUCAAAUUGCGGGAAAGGGGUCAACAGCCGUUCAGUACCAAGUCUCAGGGGAAACUUUGAGAUGGCCUUGCAAAGGGUAUGGUAAUAAGCUGACGGACAUGGUCCUAACCACGCAGCCAAGUCCUAAGUCAACAGAUCUUCUGUUGAUAUGGAUGCAGUUCACAGACUAAAUGUCGGUCGGGGAAGAUGUAUUCUUCUCAUAAGAUAUAGUCGGACCUCUCCUUAAUGGGAGCUAGCGGAUGAAGUGAUGCAACACUGGAGCCGCUGGGAACUAAUUUGUAUGCGAAAGUAUAUUGAUUAGUUUUGGAGUACUCGUGGUCG
Method in brief: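 A randomised library covering all eight P1ex-region intron nucleotides was built with the intron in the knt kanamycin-resistance gene on pET-22b(+) and held in E. coli BL21(DE3). Cells were grown overnight at 37°C or 30°C on LB agar, with or without 25 μg/mL kanamycin, plus 100 μg/mL carbenicillin, 50 μM IPTG and 0.2% rhamnose, and pooled colonies were amplicon-sequenced on an Illumina HiSeq 2500. DiMSum fitness is the error-weighted combination of wild-type-normalised replicate fold changes, kanamycin versus none.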

Sequence	self-splicing fitness (ln) (30 °C)	self-splicing fitness (ln) (37 °C)
ACCUAGCAAUAUUACGGUUU	-1.85 ± 0.065	-0.482 ± 0.087
AUUGAGCAAUAUUACGAAUG	-2.9 ± 0.21	-3.15 ± 0.3
UCCGAGCAAUAUUACGAACU	–	-2.3 ± 0.32
GCAAAGCAAUAUUACGCCCA	-1.56 ± 0.16	-0.194 ± 0.15
UUCGAGCAAUAUUACGUAUU	–	-2.79 ± 0.43
GACUAGCAAUAUUACGCCUU	-0.605 ± 0.067	0.734 ± 0.092
AUCAAGCAAUAUUACGUUUG	-2.87 ± 0.15	-2.43 ± 0.18
ACGAAGCAAUAUUACGCAGC	-2.47 ± 0.21	-0.916 ± 0.18
GGUUAGCAAUAUUACGCGUG	-0.908 ± 0.051	-0.592 ± 0.063
CGGGAGCAAUAUUACGGAGG	-3.27 ± 0.15	-3.12 ± 0.3
UCAGAGCAAUAUUACGUUCG	-1.54 ± 0.11	-1.07 ± 0.15
UUGAAGCAAUAUUACGCUUC	-2.86 ± 0.49	-2.06 ± 0.39
CGUGAGCAAUAUUACGGAUU	-4.38 ± 0.36	-3.78 ± 0.46
GGGUAGCAAUAUUACGCACA	-0.833 ± 0.2	0.402 ± 0.22
GCCCAGCAAUAUUACGUGAU	-0.455 ± 0.046	-0.00599 ± 0.065
UUAAAGCAAUAUUACGCGUG	-0.256 ± 0.056	-0.26 ± 0.068
GCGCAGCAAUAUUACGACCC	0.715 ± 0.26	0.34 ± 0.27
AGGAAGCAAUAUUACGCUUG	-2.64 ± 0.14	-0.302 ± 0.11
GGUGAGCAAUAUUACGGCAA	-1.26 ± 0.34	-1.28 ± 0.42
UGACAGCAAUAUUACGAGGA	-2.51 ± 0.16	-3.06 ± 0.22

Sequence	self-splicing fitness (ln) (30 °C)	self-splicing fitness (ln) (37 °C)
GAUGAGCAAUAUUACGUAAG	-3.37 ± 0.24	-2.11 ± 0.2
AUUAAGCAAUAUUACGGUGA	-1.3 ± 0.13	-0.588 ± 0.14
CUUCAGCAAUAUUACGCAAC	-2.86 ± 0.21	–
AACGAGCAAUAUUACGGACG	-2.19 ± 0.2	-1.05 ± 0.23
UAGUAGCAAUAUUACGAUCU	-1.22 ± 0.11	-0.472 ± 0.13
UAGCAGCAAUAUUACGUUGC	-2.57 ± 0.21	-1.91 ± 0.21
UCUUAGCAAUAUUACGGACC	–	-1.91 ± 0.28
AUGUAGCAAUAUUACGGUAU	-1.24 ± 0.093	-0.0188 ± 0.11
GUGAAGCAAUAUUACGAAGA	-0.478 ± 0.086	-1.11 ± 0.14
UGUCAGCAAUAUUACGAAAC	–	-0.978 ± 0.25
AGGUAGCAAUAUUACGAAGC	-3.821 ± 0.036	-2.3 ± 0.042
ACAGAGCAAUAUUACGUAUG	-2.91 ± 0.17	-3.39 ± 0.37
AUAAAGCAAUAUUACGAAGU	-1.82 ± 0.088	-1.01 ± 0.098
ACGCAGCAAUAUUACGGACG	-1.31 ± 0.05	-0.318 ± 0.07
ACAGAGCAAUAUUACGAGCU	-3.43 ± 0.18	-2.22 ± 0.22
UUCUAGCAAUAUUACGGGGU	-3.67 ± 0.33	-1.92 ± 0.24
UAGAAGCAAUAUUACGCGAU	-2.95 ± 0.41	–
GGCCAGCAAUAUUACGAAGC	-2 ± 0.11	0.134 ± 0.13
CAUUAGCAAUAUUACGAGUA	-1.59 ± 0.23	-1.84 ± 0.27
GACAAGCAAUAUUACGUCCG	-1.98 ± 0.27	-2.47 ± 0.28
